Results on 9 molecules are retold here after US20150299314A1 (TORAY INDUSTRIES, published 2015).

For assay [1], the target named is T1, polypeptide set forth in SEQ ID NO: 266 (human).
T1 construct: Identified from ELISA on 93 synthetic peptides of 12 to 16 amino acids of human CAPRIN-1
T1 peptide: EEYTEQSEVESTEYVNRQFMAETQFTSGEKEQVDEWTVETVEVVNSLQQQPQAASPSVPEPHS
As to the kind of experiment: ELISA on immobilized synthetic CAPRIN-1 peptides, culture supernatant. For orientation: In an ELISA, binding on a coated surface is turned into a signal by an enzyme label.

For assay [2], the target named is T2, peptide set forth in SEQ ID NO: 267 (human).
T2 peptide: QQPQAASPSVPE
The assay is described as above.

The target in assay [3] is T3, CAPRIN-1 protein expressed on the cell surface of human cancer cells (human, UniProt Q14444 2-709).
T3 sequence (looked up): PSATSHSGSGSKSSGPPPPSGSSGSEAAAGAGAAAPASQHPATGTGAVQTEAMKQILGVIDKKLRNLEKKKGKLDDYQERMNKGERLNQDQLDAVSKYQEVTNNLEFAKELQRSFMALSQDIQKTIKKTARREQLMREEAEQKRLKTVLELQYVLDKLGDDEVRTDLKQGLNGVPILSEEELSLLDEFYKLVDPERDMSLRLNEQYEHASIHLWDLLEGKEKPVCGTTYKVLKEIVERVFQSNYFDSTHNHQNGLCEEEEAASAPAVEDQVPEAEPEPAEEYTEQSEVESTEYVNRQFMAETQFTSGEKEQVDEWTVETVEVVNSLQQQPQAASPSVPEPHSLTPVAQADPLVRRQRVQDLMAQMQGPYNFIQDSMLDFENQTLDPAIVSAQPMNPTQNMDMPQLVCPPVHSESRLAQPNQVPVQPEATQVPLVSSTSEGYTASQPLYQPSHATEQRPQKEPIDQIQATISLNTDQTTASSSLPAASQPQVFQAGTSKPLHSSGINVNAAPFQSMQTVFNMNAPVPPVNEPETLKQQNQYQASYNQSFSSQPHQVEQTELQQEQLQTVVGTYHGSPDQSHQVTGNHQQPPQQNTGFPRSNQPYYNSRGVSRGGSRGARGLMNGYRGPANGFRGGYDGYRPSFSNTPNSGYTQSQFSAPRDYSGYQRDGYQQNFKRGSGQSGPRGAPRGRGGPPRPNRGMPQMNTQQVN
As to the kind of experiment: cell-based or functional assay.

Assay [4] addresses T3, CAPRIN-1 protein expressed on the cell …. Put plainly: flow cytometry, TGBC14TKB cells, antibody 20 ug/mL, secondary antibody only as control. As to the method: (§1) A human gallbladder cancer cell line TGBC14TKB was investigated whether or not a CAPRIN-1 protein is expressed on the cell surface. 5×10⁵ cells of the gallbladder cancer cell line were centrifuged with a 1.5-mL micro centrifugation tube. The cells were subjected to reaction with each mouse anti-CAPRIN-1 antibody at a final concentration of 20 μg/mL, followed by being left to stand on ice for 1 hour. After washing with PBS, the cells were reacted with a 100-fold diluted Alexa488-labeled goat anti-mouse IgG antibody (manufactured by life technologies), followed by being left to stand on ice for […]. After washing with PBS, the fluorescence intensity was measured with FACS Calibur available from Becton, Dickinson and Company. As a negative control, only the secondary antibody was used in the reaction.
as §1, with “cell surface using mouse anti-CAPRIN-1 monoclonal antibodies #30 to #36.” for “cell surface.”, “of TGBC14TKB” for “of the gallbladder cancer cell line”, “each of” for “each”, “anti-CAPRIN-1 antibodies #30 to #36” for “anti-CAPRIN-1 antibody”, “Company. Separately, the cells were subjected to reaction with” for “Company. As a negative control,”, “antibody as a negative control.” for “antibody was used in the reaction.”
A general note: In flow cytometry, cells or beads pass a laser one at a time.

The target in assay [5] is T4, polypeptide set forth in SEQ ID NO: 430 (human).
T4 peptide: ATQVPLVSSTSEGYTA
Put plainly: reactivity with the epitope peptide, method not detailed.

Assay [6] concerns the target T3, CAPRIN-1 protein expressed on the cell …. As to the kind of experiment: reactivity with gallbladder cancer cell lines, method not detailed.
Assay [7] addresses T5, human CAPRIN-1 recombinant protein (human, UniProt Q14444 1-709).
T5 construct: also called CAPRIN-1 protein; antigen protein (human CAPRIN-1 protein)
T5 sequence: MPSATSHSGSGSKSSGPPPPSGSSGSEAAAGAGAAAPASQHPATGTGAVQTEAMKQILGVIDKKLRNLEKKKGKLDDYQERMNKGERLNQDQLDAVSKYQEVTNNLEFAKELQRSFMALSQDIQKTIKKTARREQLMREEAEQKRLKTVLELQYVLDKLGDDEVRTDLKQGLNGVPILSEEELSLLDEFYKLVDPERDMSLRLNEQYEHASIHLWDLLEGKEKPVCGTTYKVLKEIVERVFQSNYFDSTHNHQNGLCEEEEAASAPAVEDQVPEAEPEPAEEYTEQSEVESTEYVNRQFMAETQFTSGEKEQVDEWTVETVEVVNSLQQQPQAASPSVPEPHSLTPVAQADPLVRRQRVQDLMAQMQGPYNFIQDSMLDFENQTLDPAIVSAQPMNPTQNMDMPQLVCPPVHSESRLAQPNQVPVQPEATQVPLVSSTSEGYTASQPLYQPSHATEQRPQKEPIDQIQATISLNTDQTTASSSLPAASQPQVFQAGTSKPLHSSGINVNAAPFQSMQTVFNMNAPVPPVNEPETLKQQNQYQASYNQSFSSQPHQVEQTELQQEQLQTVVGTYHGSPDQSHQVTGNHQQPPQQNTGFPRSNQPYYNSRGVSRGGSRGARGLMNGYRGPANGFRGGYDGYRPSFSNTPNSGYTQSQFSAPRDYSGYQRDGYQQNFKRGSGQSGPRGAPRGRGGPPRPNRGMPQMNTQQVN
As to the kind of experiment: reactivity with CAPRIN-1 protein, method not detailed.

Assay [8] deals with T6, polypeptide comprising the amino acid sequence set forth in SEQ ID NO: 269 (human).
T6 peptide: PPVNEPETLKQQNQYQAS
Put plainly: ELISA on immobilized synthetic CAPRIN-1 peptides, culture supernatant.

Assay [9] deals with T3, CAPRIN-1 protein expressed on the cell …. As to the kind of experiment: flow cytometry, TGBC14TKB cells, culture supernatant, isotype control antibody as control. As to the method: Subsequently, a gallbladder cell line TGBC14TKB, which was confirmed to express a CAPRIN-1 gene, was investigated for whether or not a CAPRIN-1 protein is expressed on the surfaces of these cells. 1×10⁶ cells of TGBC14TKB were centrifuged with a 1.5-mL micro centrifugation tube. To the cells was added the culture supernatant (100 μL) containing any of anti-CAPRIN-1 mouse monoclonal antibodies #1 to #22 reacting to cancer cell surface produced in Example 4 and anti-CAPRIN-1 mouse-chicken chimeric antibodies #1 to #3 produced in the above (2), followed by being left to stand on ice for 1 hour. After washing with PBS, the cells were suspended in a FITC-labeled goat anti-mouse IgG antibody (manufactured by life technologies) diluted by 500-fold with PBS containing 0.1% FBS, followed by being left to stand on ice for 1 hour. After washing with PBS, the fluorescence intensity was measured with FACS Calibur available from Becton, Dickinson and Company. Separately, as a control, the same procedure as in above was performed using an iso-type control antibody, instead of the culture supernatants containing the anti-CAPRIN-1 mouse monoclonal antibodies #1 to #22 and the mouse-chicken chimeric antibodies #1 to #3. As a result, the fluorescence intensity in the cells to which any of the monoclonal antibodies #1 to #22 and the mouse-chicken chimeric antibodies #1 to #3 was added was 20% or more higher than that in the control in every case. Specifically, in the case of using mouse-chicken chimeric antibody #1, the fluorescence intensity was enhanced by 200% or more. […] The rate of increase in the fluorescence intensity is represented by the rate of increase in the mean fluorescence intensity (MFI value) in each cell and is calculated by the following calculation formula: […]

The target of assay [10] is T7, polypeptide set forth in SEQ ID NO: 431 (human).
T7 peptide: VERVFQSNYFDSTHNH
As to the kind of experiment: ELISA on immobilized synthetic CAPRIN-1 peptides, culture supernatant.

Where a chain is given by its changes, count along the chain named. A value given as a limit tells only on which side of the number the result lay.

B1: human-chicken chimeric antibody #1 (antibody, human IgG1, kappa, V domains shown)
VH: AVTLDESGGGLQMSRGGLSLVCKASGFDFSSYQMNWIRQAPGKGLEFVAAINKFGNSTGHGAAVKGRVTISRDNGQSTVRLQLNNLRAEDTAIYFCTKHAYGYCGSGTWCAAGEIDAWGHGTEVIVSS
VL: QAASTQPSSVSANPGETVEITCSGGGSYSYGWFQQKSPGSAPVTVIYYNNKRPSDIPSRFSGSKSGSTGTLTITGVQADDEAVYYCGSGDSTDTAVFGAGTTLTVLG
notes: also called human-chicken chimeric monoclonal antibody #1
B1: the binding result in [1] and in assay [2] was “binds” each time. Also, the “cytotoxicity (ADCC, 51Cr release) on TGBC14TKB, human NK cells” value (“cytotoxicity (ADCC, 51Cr release)” for short) in assay [3] came to 20%.

B2: mouse anti-CAPRIN-1 antibody #33 (antibody)
chain 1: GPGLVKPSQSLSLTCSVTGYSITSGYYWNWIRQFPGNKLEWMGYISYDGSNNYNPSLKNRISITRDTSKNQFFLKLNSVTTEDTATYYCATGMAWFAYW
chain 2: not shown
For B2, in assay [4], the “increase in fluorescence intensity over control” value was at least 35%.

B3: humanized anti-CAPRIN-1 antibody #2 (antibody, human IgG1, V domains shown)
VH: EVQLVESGGGLVQPGGSLRLSCAASGFSFSGSYYMSWVRQAPGKGLEWIAYIYIGDGVTAYANWAKGRFTISKDNSKNTLYLQMNSLRAEDTAVYFCARGNKLWGPGTLVTVSS
VL: DIQMTQSPSSLSASVGDRVTIKCQASQSISSYLAWYQQKPGKAPKRLIYDASNLDSGVPSRFSGSGSGTDFTFTISSLQPEDIATYYCQCTAVSSATIYGNAFGGGTKVEIK
In the case of B3, the binding result in assay [5], in [6] and in assay [7] was “binds” in each case.

B4: humanized anti-CAPRIN-1 antibody #3 (antibody, human IgG1, V domains shown)
VH: B3 VH with K73R, F96Y
VL: B3 VL
Turning to B4, the binding result in [5], in assay [6] and in [7] was “binds” throughout.

B5: humanized anti-CAPRIN-1 antibody #1 (antibody, human IgG1, V domains shown)
VH: B3 VH with E1Q, Q13K, K73R, S76A, T79S, K102R, P106Q
VL: B3 VL with S14A, A43P
Take B5: the binding result in assay [5], in assay [6] and in assay [7] was “binds” each time.

B6: mouse anti-CAPRIN-1 antibody #31 (antibody, V domains shown)
VH: GPELVKPGASVKISCKASGYSFTGYFMNWVMQSHGKSLEWIGRINPYNGDTFYNQKFKGKATLTVDKSSSTAHMELRSLASEDSAVYYCARRIHYYYGSSYYAMDYWGQEPHH
VL: DVQITQSPSYLAASPGETITINCRASKSISKYLAWYQEKPGKTNKLLIYSGSTLQSGIPSRFSGSGSGTDFTLTISSLEPEDFAMYYCQQHNEYPWTFGGGTKLEIKR
notes: mouse hybridoma antibody; also called mouse anti-CAPRIN-1 monoclonal antibody #31
Consider B6, for which the “increase in fluorescence intensity over control” value in [4] is at least 35%.

B7: human-chicken chimeric antibody #3 (antibody, human IgG1, kappa, V domains shown)
VH: AVTLDESGGGLQTPGGALSLVCKASGFTFSGYDMLWVRQAPGKGLEWVAGIGSTGGGTDYGAAVKGRATISRDNGQSTVRLQLNNLRAEDTATYYCAKVAGGCNSGYCRDSPGSIDAWGHGTEVIVSA
VL: AVTQQPASVSANPGETVKITCSGGGSRNYYGWYQQKSPGSVPVTVIYYDDQRPSNIPSRFSGALSGSTSTLTITGVQADDEAVYFCGSADSNTYEGSFGAGTTLTVLT
notes: Produced 'similarly' to human-chicken chimeric antibody #1 from chicken monoclonal antibody #3; also called human-chicken chimeric monoclonal antibody #3
With B7, in [8], the binding result was “binds”. The “cytotoxicity (ADCC, 51Cr release)” value in [3] is at least 15%.

B8: mouse monoclonal antibody #4 (antibody, V domains shown)
VH: GAELVRSGASVKMSCKASGYSFTDYNMYWVKQTPGQGLEWIGYIYPGNGGTNYNQKFKGKATLTADTSSSTAYMQISSLTSEDSAVYFCARDYDDGGYAMDYWGQGTTVTVSS
VL: DIQMTQSPASLSASVGETVTITCRASGNIHNYLTWYQQKQGKSPQLLVYNAKTLADGVPSRFSGSGSGTQYSLKINRLQPEDFGSYYCQHFWNIPWTFGGGTKLNSR
notes: mouse hybridoma antibody; also called anti-CAPRIN-1 mouse monoclonal antibody #4; anti-CAPRIN-1 monoclonal antibody #4
Consider B8, for which the binding result in assay [1] and in [2] was “binds” throughout. The “rate of increase in mean fluorescence intensity over control” value in assay [9] is at least 20%. The “cytotoxicity (ADCC, 51Cr release)” value in [3] was at least 15%.

B9: mouse anti-CAPRIN-1 antibody #34 (antibody, V domains shown)
VH: GAELVRPGTSVKVSCKASVYAFTNYLIEWVKQRPGQGLEWIGVINPKSGGTKYNEKFRGKATLTADKSSSTAYMQLSSLTSGDSAVYFCAITGTDYWGQGTTLTVSS
VL: QGTRCDIQMTQTTSSLSASLGDRVTISCSASQGINNYLNWYQQKPDGTVKLLIYYTSSLRSGVPSRFSGSGSGTDYSLTISNLEPEDVATYYCQQYSKLPRTFGGGTKLEIKR
notes: mouse hybridoma antibody; also called mouse anti-CAPRIN-1 monoclonal antibody #34; mouse anti-CAPRN-1 antibody #34
In the case of B9, in [10], the binding result is “binds”. In assay [4], the “increase in fluorescence intensity over control” value was at least 35%.
